These results are taken from patent US20230338423A1 (published 2023).

In one experiment the target is T1, V5-tagged mouse Susd2 (mouse, UniProt Q9DBX3 23-820).
T1 construct: Retrovirally expressed in Susd2-/- OT-I T cells and precipitated from RIPA lysates with anti-V5 agarose; also called V5-Susd2; pMIG II-Susd2; not shown: V5 and His tag
T1 sequence: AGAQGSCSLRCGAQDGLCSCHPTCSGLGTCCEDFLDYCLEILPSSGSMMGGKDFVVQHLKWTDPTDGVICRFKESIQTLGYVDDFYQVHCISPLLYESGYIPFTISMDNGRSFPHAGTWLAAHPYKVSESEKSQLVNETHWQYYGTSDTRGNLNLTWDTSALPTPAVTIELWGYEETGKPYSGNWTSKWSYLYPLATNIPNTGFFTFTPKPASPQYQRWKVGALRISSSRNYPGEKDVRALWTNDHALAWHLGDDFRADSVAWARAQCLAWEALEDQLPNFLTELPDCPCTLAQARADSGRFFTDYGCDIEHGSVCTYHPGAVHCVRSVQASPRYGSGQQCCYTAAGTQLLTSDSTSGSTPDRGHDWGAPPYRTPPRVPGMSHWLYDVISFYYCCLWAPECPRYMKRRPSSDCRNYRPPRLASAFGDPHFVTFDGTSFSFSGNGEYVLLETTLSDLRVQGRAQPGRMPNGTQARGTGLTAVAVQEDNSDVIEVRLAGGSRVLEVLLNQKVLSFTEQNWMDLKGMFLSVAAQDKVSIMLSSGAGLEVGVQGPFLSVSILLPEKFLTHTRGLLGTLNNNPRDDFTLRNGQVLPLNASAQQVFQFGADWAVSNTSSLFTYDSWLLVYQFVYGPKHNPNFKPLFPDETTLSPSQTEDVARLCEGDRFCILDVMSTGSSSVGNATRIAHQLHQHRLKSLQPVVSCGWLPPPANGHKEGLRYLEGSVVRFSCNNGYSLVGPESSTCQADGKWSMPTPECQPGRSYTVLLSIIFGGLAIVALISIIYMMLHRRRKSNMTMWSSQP
Kind of experiment: anti-V5 immunoprecipitation and immunoblot, Susd2-reconstituted Susd2-/- OT-I T cells.

Experiment [1] has as its target T2, V5-SUSD2 (human SUSD2, V5-tagged) (human, UniProt Q9UGT4 28-822).
T2 construct: Overexpressed in 293T cells or Jurkat T cells; also called SUSD2^WT; not shown: V5 and His tag
T2 sequence: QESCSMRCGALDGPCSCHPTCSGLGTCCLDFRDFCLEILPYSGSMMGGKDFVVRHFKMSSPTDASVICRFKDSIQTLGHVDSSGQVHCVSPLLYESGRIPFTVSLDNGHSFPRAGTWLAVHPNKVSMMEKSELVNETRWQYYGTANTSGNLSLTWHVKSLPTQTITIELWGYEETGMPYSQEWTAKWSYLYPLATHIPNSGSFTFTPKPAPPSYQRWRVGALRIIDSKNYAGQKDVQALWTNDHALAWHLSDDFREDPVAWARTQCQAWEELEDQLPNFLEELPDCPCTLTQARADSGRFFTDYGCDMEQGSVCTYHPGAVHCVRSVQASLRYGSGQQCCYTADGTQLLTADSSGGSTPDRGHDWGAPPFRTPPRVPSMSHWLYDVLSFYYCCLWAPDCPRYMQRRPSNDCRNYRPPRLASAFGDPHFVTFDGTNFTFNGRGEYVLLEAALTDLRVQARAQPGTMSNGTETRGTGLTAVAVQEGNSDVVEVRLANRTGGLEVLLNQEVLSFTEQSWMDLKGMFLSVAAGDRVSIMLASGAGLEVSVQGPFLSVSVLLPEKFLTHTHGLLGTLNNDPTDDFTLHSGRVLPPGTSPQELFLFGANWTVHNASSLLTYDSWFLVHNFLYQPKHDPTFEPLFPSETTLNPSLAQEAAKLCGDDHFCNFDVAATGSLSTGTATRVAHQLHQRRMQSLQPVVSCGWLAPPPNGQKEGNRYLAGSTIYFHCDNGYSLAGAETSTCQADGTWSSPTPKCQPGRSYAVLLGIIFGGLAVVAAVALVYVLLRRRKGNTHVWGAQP
Kind of experiment: anti-V5 immunoprecipitation and immunoblot, Jurkat T cells. (In general: In western blotting, separated proteins are transferred to a membrane and probed.)

Description for V5-tagged mouse Susd2: Immunoprecipitation and immunoblotting. For immunoprecipitation, cells were lysed in RIPA buffer supplemented with cOmplete™ Protease Inhibitor Cocktail (Sigma-Aldrich). […] Samples were washed 5 times with cold RIPA buffer. To elute proteins from the beads, samples were incubated with 30 μl of SDS sample buffer at 95° C. for 10 minutes. Protein content in the supernatant was analyzed by immunoblotting. For immunoblotting, electrophoresis of protein was performed by using the NuPAGE system (Invitrogen) according to the manufacturer's protocol. Briefly, cultured CD8⁺ T cells or Jurkat cells were collected and lysed with RIPA buffer. Proteins were separated on a NuPAGE precast gel and were transferred onto nitrocellulose membranes (Bio-Rad). Appropriate primary antibodies and HRP-conjugated secondary antibodies were used and proteins were detected using the Enhanced Chemiluminescent (ECL) reagent (Thermo Fisher Scientific).

B1: mouse common γ chain (endogenous, OT-I T cells) (receptor, UniProt P34902 23-369, looked up)
chain: WSSKVLMSSANEDIKADLILTSTAPEHLSAPTLPLPEVQCFVFNIEYMNCTWNSSSEPQATNLTLHYRYKVSDNNTFQECSHYLFSKEITSGCQIQKEDIQLYQTFVVQLQDPQKPQRRAVQKLNLQNLVIPRAPENLTLSNLSESQLELRWKSRHIKERCLQYLVQYRSNRDRSWTELIVNHEPRFSLPSVDELKRYTFRVRSRYNPICGSSQQWSKWSQPVHWGSHTVEENPSLFALEAVLIPVGTMGLIITLIFVYCWLERMPPIPPIKNLEDLVTEYQGNFSAWSGVSKGLTESLQPDYSERFCHVSEIPPKGGALGEGPGGSPCSLHSPYWPPPCYSLKPEA
notes: whole, on cells; Endogenous, probed by immunoblot in Susd2 precipitates; also called common 7 chain
Turning to B1, in the experiment with V5-tagged mouse Susd2, the binding result was “no binding”.

B2: endogenous IL-2Rα in human Jurkat T cells (receptor, UniProt P01589 22-272, looked up)
chain: ELCDDDPPEIPHATFKAMAYKEGTMLNCECKRGFRRIKSGSLYMLCTGNSSHSSWDNQCQCTSSATRNTTKQVTPQPEEQKERKTTEMQSPMQPVDQASLPGHCREPPPWENEATERIYHFVVGQMVYYQCVQGYRALHRGPAESVCKMTHGKTRWTQPQLICTGEMETSQFPGEEKPQASPEGRPESETSCLVTTTDFQIQTEMAATMETSIFTTEYQVAVAGCVFLLISVLLLSGLTWQRRQRKSRRTI
notes: whole, on cells; Endogenous protein, pulled down from Jurkat lysate
Consider B2, for which, in experiment [1], the binding result is “binds”.

B3: mouse IL-2Rβ (endogenous, OT-I T cells) (receptor, UniProt P16297 27-539, looked up)
chain: AVKNCSHLECFYNSRANVSCMWSHEEALNVTTCHVHAKSNLRHWNKTCELTLVRQASWACNLILGSFPESQSLTSVDLLDINVVCWEEKGWRRVKTCDFHPFDNLRLVAPHSLQVLHIDTQRCNISWKVSQVSHYIEPYLEFEARRRLLGHSWEDASVLSLKQRQQWLFLEMLIPSTSYEVQVRVKAQRNNTGTWSPWSQPLTFRTRPADPMKEILPMSWLRYLLLVLGCFSGFFSCVYILVKCRYLGPWLKTVLKCHIPDPSEFFSQLSSQHGGDLQKWLSSPVPLSFFSPSGPAPEISPLEVLDGDSKAVQLLLLQKDSAPLPSPSGHSQASCFTNQGYFFFHLPNALEIESCQVYFTYDPCVEEEVEEDGSRLPEGSPHPPLLPLAGEQDDYCAFPPRDDLLLFSPSLSTPNTAYGGSRAPEERSPLSLHEGLPSLASRDLMGLQRPLERMPEGDGEGLSANSSGEQASVPEGNLHGQDQDRGQGPILTLNTDAYLSLQELQAQDSVHLI
notes: whole, on cells; Endogenous, probed by immunoblot in Susd2 precipitates; also called CD122
As for B3, the binding result with V5-tagged mouse Susd2 is “no binding”.

B4: mouse IL-15Rα (endogenous, OT-I T cells) (receptor, UniProt Q60819 33-263, looked up)
chain: GTTCPPPVSIEHADIRVKNYSVNSRERYVCNSGFKRKAGTSTLIECVINKNTNVAHWTTPSLKCIRDPSLAHYSPVPTVVTPKVTSQPESPSPSAKEPEAFSPKSDTAMTTETAIMPGSRLTPSQTTSAGTTGTGSHKSSRAPSLAATMTLEPTASTSLRITEISPHSSKMTKVAISTSVLLVGAGVVMAFLAWYIKSRQPSQPCRVEVETMETVPMTVRASSKEDEDTGA
notes: whole, on cells; Endogenous, probed by immunoblot in Susd2 precipitates
With B4, in the experiment with V5-tagged mouse Susd2, the binding result is listed as “no binding”.
